{
  "source": "patent US20080070238",
  "biological_target": "DNase I (UniProt P00639)",
  "sequence (P00639 23-282)": "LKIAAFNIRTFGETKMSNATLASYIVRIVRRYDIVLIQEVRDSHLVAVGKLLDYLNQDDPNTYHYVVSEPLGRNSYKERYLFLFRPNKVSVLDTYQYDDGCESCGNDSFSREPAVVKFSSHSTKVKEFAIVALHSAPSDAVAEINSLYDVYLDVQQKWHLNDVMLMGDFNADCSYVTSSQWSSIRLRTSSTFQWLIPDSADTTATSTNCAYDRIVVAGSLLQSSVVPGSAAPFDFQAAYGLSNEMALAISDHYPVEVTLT",
  "test": "cleavage_in_vitro",
  "settings": "2'-F at all nucleotides; 100 mM NaOAc, 5 mM MgCl2, 37 C, 5 min",
  "data": [
    {"sequence": "NNNNNNNNNNNNNNNNNNNNNNNNNNNNNNNNNNNNNNNNCACGAGTGAAGTCTGAGCTCC [BSA-1A FNA library (primer removed)]", "values": [
      {"measurement": "activity (fold more stable than DNA)", "value": "> 100"}
    ]}
  ]
}
